Assay results published in patent JP2024517985A (dated 2024).

Experiments:
[1] = biological target: T1, CD300c抗原(11832-H08H、Sino Biological) (UniProt Q08708 21-183); assay: SPR, CD300c immobilised on CM5 chip, CL7 as analyte 0-6.25 ug/ml
T1 construct: Bought recombinant protein; also called CD300c; CD300c antigen
T1 sequence (looked up): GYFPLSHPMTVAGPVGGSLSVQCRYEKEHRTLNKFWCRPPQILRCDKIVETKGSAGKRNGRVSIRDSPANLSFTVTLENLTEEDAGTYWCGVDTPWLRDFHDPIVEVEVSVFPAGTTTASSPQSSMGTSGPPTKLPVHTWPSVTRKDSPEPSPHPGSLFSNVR

[2] = biological target: T2, 293T細胞及びTHP-1細胞の表面で過剰発現されたCD300c (UniProt Q08708 21-224, limits assumed); assay: flow cytometry (MFI) on 293T cells overexpressing CD300c, FITC anti-human IgG (H+L)
T2 construct: whole, on cells; Expression construct not described; also called CD300c overexpressed on 293T cells; CD300c overexpressed on THP-1 cells
T2 sequence (looked up): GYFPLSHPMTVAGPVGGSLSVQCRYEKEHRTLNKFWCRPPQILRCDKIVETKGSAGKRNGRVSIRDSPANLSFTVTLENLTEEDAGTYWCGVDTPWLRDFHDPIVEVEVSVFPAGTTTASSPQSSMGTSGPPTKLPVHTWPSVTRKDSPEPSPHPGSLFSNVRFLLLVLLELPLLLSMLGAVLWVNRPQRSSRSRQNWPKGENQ

[3] = biological target: T2, 293T細胞及びTHP-1細胞の表面で過剰発現されたCD300c; assay: flow cytometry (MFI) on THP-1 cells overexpressing CD300c, FITC anti-human IgG (H+L)
[4] = biological target: T1, CD300c抗原(11832-H08H、Sino Biological); assay: SPR, CD300c immobilised on CM5 chip, CL7 as analyte 0-6.25 ug/ml (rounded form of the same KD)

B1: 抗-CD300cモノクローナル抗体 CL7 (antibody, V domains shown)
VH: EVQLLESGGGLVQPGGSLRLSCAASGFTFSRYAMSWVRQAPGKGLEWVSAISGSGGSTYYADSVKGRFTISRDNSKNTLYLQMNSLRAEDTAVYYCARSSQGIFDIWGQGTLVTVSS
VL: QSVLTQPPSASGTPGQRVTISCSGNNIGTRRVHWYQQLPDTAPKLLIYSKNNRPSGVPDRFSGSKSGTSASLAISGLRSEDEADYYCAAWDDSLSGPVFGGGTKLTVL
Kd [1]: 0.52 nM
EC50 [2]: 2.7 nM
EC50 [3]: 2.6 nM
Kd [4]: 0.52 nM
